Test results from paper PMC4085576.

Target: microtubules (X-rhodamine labeled, biotin-linked to the surface)
Assay: TIRF microscopy of GFP-tagged protein on immobilised microtubules

B1: KIF7_(560)-GFP, N-terminal motor domain and first coiled-coil of KIF7 with a C-terminal GFP tag (domain or fragment)
chain: MGLEAQRLPGAEEAPVRVALRVRPLLPKELLHGHQSCLRVEPERGRITLGRDRHFGFHVVLGEDTGQEAVYQACVQPLLEAFFEGFNATVFAYGQTGSGKTYTMGEASVASLHEDEQGIIPRAMAEAFKLIDENDLLDCLVHVSYLELYKEEFRDLLEVGTASRDIQLREDDRGNVVLCGVKEVDVEGLDEVLSLLEMGNAARHTGATHFNRLSSRSHTVFTVTLEQRGRTPSRLPRPAAGHLLVSKFHFVDLAGSERVLKTGSTGERLKESIQINSTLLALGNVISALGDPQRRGSHIPYRDSKITRILKDSLGGNAKTVMIACVSPSSSDFDETLNTLNYASRAQNIRNRATVNWHPEAERVPEEQAAGARGPPRHRSETRIIHRGRRVPCPAVGSAAVAAGLGAECARCRARTSAAYSLLRELQAEPGLPGAAARKVRDWLCAVEGERSTLSSASGPDSGIESAPAEDQAAQGTSGRKGDEGTQQLLTLQSQVARLEEENRDFLAALEDAMEQYKLQSDRLREQQEEMVELRLRLELAQPGWGAPGLLQGLPPGSFV
Question: How did the fold increase in filament-bound KIF7 with 2 mM AMP-PNP against 1 mM MgATP turn out when B1 was run?
Answer: 2 fold
